In the supplement of paper PMC10899765:

Columns and labels:
Conditions in all cases: 20 nM; 72 h
MCF10A [1] = experiment: percent viability (nuclei count relative to siNT); higher = more viable cells
Method: (§1)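 After 72 h, cells were fixed and stained with Hoechst and anti-fibrillarin, and nucleoli per nucleus were counted with CellProfiler. Values are plate-adjusted percent effect for the one-nucleolus and 5+ nucleoli phenotypes, normalised to siNT (0%) and to the positive controls siNOL11 or siKIF11 (100%), as the mean of biological triplicates. Percent viability is the nuclei count relative to siNT.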

MCF10A [2] = experiment: 5+ nucleoli phenotype percent effect (relative to siNT 0% and siKIF11 100%); higher = more cells with five or more nucleoli
Method: as §1

MCF10A [3] = experiment: one-nucleolus phenotype percent effect (relative to siNT 0% and siNOL11 100%); higher = more cells with one nucleolus (ribosome biogenesis inhibition)
Method: as §1

Sequence | percent viability (MCF10A [1]) [%] | 5+ nucleoli phenotype percent effect (MCF10A [2]) [%] | one-nucleolus phenotype percent effect (MCF10A [3]) [%]
UGGGGUGCCCACUCCGCAAGUU [hsa-miR-4664-5p] | 9.8 | -17.8 | 23.6
GUGCCACCUUAACUGCAGCCAAU [hsa-miR-4715-3p] | 53.4 | -23.5 | 6.34
AAUAGCUCAGAAUGUCAGUUCUG [hsa-miR-7705] | 71.2 | -21.4 | 2.1
GUCCGCUCGGCGGUGGCCCA [hsa-miR-572] | 96 | -5.13 | -16.2
GUAGCACCUUGCAGGAUAAGGU [hsa-miR-5682] | 72.9 | 12.2 | -21.5
GGGGGGUGUGGAGCCAGGGGGC [hsa-miR-6752-5p] | 79.1 | 41.7 | -21.9
UGGCUCAGUUCAGCAGGAACAG [hsa-miR-24-3p] | 26.5 | -17 | 2.42
UUCCACUGCCACUACCUAAUUU [hsa-miR-6509-3p] | 56.2 | -18.4 | -4.11
GAAGUUGUUCGUGGUGGAUUCG [hsa-miR-382-5p] | 37.7 | -18.5 | 27.9
AGAGUUGAGUCUGGACGUCCCG [hsa-miR-219-1-3p] | 88.9 | 30.8 | -25
UGGCUGUUGGAGGGGGCAGGC [hsa-miR-4687-3p] | 23.1 | -1.42 | 25.6
GACAGAGUGCCACUUACUGAA [hsa-miR-4797-5p] | 23.7 | -25.1 | 41.8
CCAGUUACCGCUUCCGCUACCGC [hsa-miR-935] | 59 | -23.4 | 15.8
GGGGGUCCCCGGUGCUCGGAUC [hsa-miR-615-5p] | 137 | 33.1 | -20
GUGAGUGGGAGCCGGUGGGGCUG [hsa-miR-4758-5p] | 107 | 48.5 | -17.7
UGGCAGGGAGGCUGGGAGGGG [hsa-miR-1207-5p] | 24.4 | -30.5 | 24.5
AUAAUACAACCUGCUAAGUGCU [hsa-miR-374c-5p] | 45.3 | -36.9 | 26.4
UGCAGCUCUGGUGGAAAAUGGAG [hsa-miR-4660] | 43.5 | -12.2 | 1.97
GCGGUGAUCCCGAUGGUGUGAGC [hsa-miR-598-5p] | 93.1 | 32.8 | -24
GCAGAGAACAAAGGACUCAGU [hsa-miR-3919] | 23.3 | -14.9 | 38.7

Sequence | percent viability (MCF10A [1]) [%] | 5+ nucleoli phenotype percent effect (MCF10A [2]) [%] | one-nucleolus phenotype percent effect (MCF10A [3]) [%]
ACCUGUCUGUGGAAAGGAGCUA [hsa-miR-4421] | 30.7 | -6.29 | 15.9
CAACCUGGAGGACUCCAUGCUG [hsa-miR-490-3p] | 41.3 | 55.8 | -12.6
ACUGUAGUAUGGGCACUUCCAG [hsa-miR-20b-3p] | 74 | -11.6 | 1.32
UGAGGGAGUGGAUUGUAUG [hsa-miR-6130] | 16.7 | -15.2 | -1.2
UCAGGACACUUCUGAACUUGGA [hsa-miR-5000-3p] | 53.5 | 20.7 | -10.1
CAACGGAAUCCCAAAAGCAGCUG [hsa-miR-191-5p] | 29.2 | 2.25 | 11.8
UGGGGAGCUGAGGCUCUGGGGGUG [hsa-miR-939-5p] | 82.5 | 17 | -7.29
UCUUCACCUGCCUCUGCCUGCA [hsa-miR-6754-3p] | 71.5 | 15.2 | -24.7
CUCUAGAGGGAAGCACUUUCUG [hsa-miR-518d-5p] | 57.8 | 5.06 | -4.59
UGGCGGGGGUAGAGCUGGCUGC [hsa-miR-6787-5p] | 23.7 | -19.2 | 30
UCGUGUCUUGUGUUGCAGCCGG [hsa-miR-187-3p] | 87.7 | -1.49 | -7.21
UAGGUAGAGUGUGAGGAGGAGGUC [hsa-miR-6831-5p] | 53.8 | 27.5 | -21
GCACCCAGGCAAGGAUUCUG [hsa-miR-500b-3p] | 76.8 | -15.3 | 11.8
CACAUUACACGGUCGACCUCU [hsa-miR-323a-3p] | 49.9 | -33.7 | 12.4
AUCACAUUGCCAGGGAUUACC [hsa-miR-23b-3p] | 103 | -9.04 | 0.34
UACUUGGAAAGGCAUCAGUUG [hsa-miR-890] | 21 | -34.1 | 49.1
AUGCUGACAUAUUUACUAGAGG [hsa-miR-628-5p] | 107 | 32.8 | -9.78
GAAGUGUGCCGUGGUGUGUCU [hsa-miR-595] | 30.6 | -22 | 12.4
ACACUUGUUGGGAUGACCUGC [hsa-miR-6500-3p] | 23.8 | -37.8 | 22.5
GUGCAAAAGUCAUCACGGUU [hsa-miR-548aw] | 57.6 | -29.9 | -0.384

Sequence | percent viability (MCF10A [1]) [%] | 5+ nucleoli phenotype percent effect (MCF10A [2]) [%] | one-nucleolus phenotype percent effect (MCF10A [3]) [%]
AGGGCCCCCCCUCAAUCCUGU [hsa-miR-296-5p] | 49.5 | 11.6 | 2.62
CAAUCACUAACUCCACUGCCAU [hsa-miR-34b-3p] | 50.1 | 11 | -6.72
UGGCCAAAAAGCAGGCAGAGA [hsa-miR-3926] | 31.6 | 0.491 | 11.5
UCAAAUGCUCAGACUCCUGUGGU [hsa-miR-105-5p] | 37.7 | -18 | -6.5
GCCCCGGCGCGGGCGGGUUCUGG [hsa-miR-4707-5p] | 116 | 42.2 | -25
AGGAAGCAAGAGAACCCUGUGG [hsa-miR-6828-5p] | 26.9 | -41.5 | 18.9
CCUGCAGCGACUUGAUGGCUUCC [hsa-miR-1184] | 70.1 | -8.51 | 4.01
CGAGGGCAUUUCAUGAUGCAGGC [hsa-miR-3616-3p] | 24.6 | -22 | 43.6
UGAGGGAGGAGACUGCA [hsa-miR-4419a] | 7.9 | -18.8 | 18.6
UUGGGGUGGAGGGCCAAGGAGC [hsa-miR-6819-5p] | 3.49 | 2.57 | 37.8
AAUAGGCCACGGAUCUGGGCAA [hsa-miR-1295b-3p] | 13.8 | 4.51 | 28.6
CUGUUGCCACUAACCUCAACCU [hsa-miR-744-3p] | 56 | -44.1 | 27.3
UCAGUGUCUGGAUUUCCUAG [hsa-miR-6733-3p] | 70.7 | -16.2 | -2.06
GGGAUAUGAAGAAAAAU [hsa-miR-3201] | 59.6 | 40.5 | -15.6
GAAUGUUGCUCGGUGAACCCCU [hsa-miR-409-3p] | 35.9 | -31.1 | 9.98
UCUUGUGUUCUCUAGAUCAGU [hsa-miR-581] | 82.2 | 2.53 | -3.72
UAGUGCAAUAUUGCUUAUAGGGU [hsa-miR-454-3p] | 121 | 54.6 | -20.8
AGCUGUCUGUGUUUUCCUUCUCAG [hsa-miR-6876-3p] | 58.5 | -19.1 | 6.32
UCCCUGAGCAAAGCCAC [hsa-miR-4319] | 59.9 | 9.87 | -1.9
